The values below come from patent publication US20190023770A1 (Genentech, published 2019).

Bounds are passed on as bounds.

The target in assay [1] is recombinant hemagglutinin H1 from influenza A virus A/NWS/1933 (influenza A virus A/NWS/1933 (printed …, UniProt P03454 18-528)).
The target in assay [2] is recombinant hemagglutinin H3 from influenza A virus A/Hong Kong/8/1968 (influenza A virus A/Hong Kong/8/1968, UniProt Q91MA7 17-530).

B1: monoclonal antibody mAb9 01F3 (antibody, V domains shown)
VH: QVQLVQSGAEVKQPGASVKVSCKASGYTFNAYYIHWVRQAPGQGLEWMGWINPNFGGTHYARKFQGRVTMTRDASINTAYMELDRLISDDTAVYYCVRWRAAAVIMDQFYKMDVWGQGTLVTVSS
VL: SSELTQPPSASGTPGQRVTISCSGSTSNIGYNPVSWYQQVPGTAPKLLIYSNTERPSGVPDRFSGSKSGTSASLAISGLQSEDEADYYCAAWDDTLNGPVFGGGTKVTVL
Regarding B1, the EC50 (as a rule, the concentration needed to bring the measured effect to its halfway point) was more than 200 nM in assay [1] and 8.42 nM in assay [2].

B2: monoclonal antibody 36.89 (antibody, V domains shown)
VH: QVQLVQSGAELKRPGASVKVSCKTSGYSFNNYGINWVRQAPGQGLEWMGWISAYTGNTHYAKNFEGRVTLTTDTSTSTAYMEVRSLRSDDSAVYFCARAMIQGVVTLYLRPGDYWGQGTLVTVSS
VL: DIVMTQSPSTLSASVGDRVTITCRASQSIGNWLAWYQQKPGKAPKLLIYKVSTLESGVPSRFSGSGSGTEFTLTINSLQPDDFATYYCQRYTSNSQGFTFGQGTKLEIK
On to B2, for which the EC50 in assay [1] is more than 200 nM; in assay [2], 1.32 nM.

B3: monoclonal antibody mAb23 06C2 (antibody, V domains shown)
VH: QVQLQESGPGLVKPSETLSLTCTVSGGLIGTGSYYWGWIRQTPGKGMEWIGSISYSGSTYYHPSLKSRVTISDDTSKNQLFLKLRSVTAADTAQYYCARYNWGIRYFDFWGRGTLVTVSS
VL: DIQLTQSPLSPPVTLGQPASISCRSSQSLLYTDGFTYLSWYHQRPGQSPRRLIYKISNRDSGVPDRFSGSGSGTDFTLKISRVEAEDVGVYYCMQATHWPLTFGEGTKVEIK
As to B3, the EC50 in assay [1] was more than 200 nM; in assay [2] it was 1.84 nM.
